In experiment [1] the target is HLA A2 on RMA-S/A2 cells (human). Put plainly: BB7.2 staining of RMA-S/A2 cells without peptide (peptide-free control); FIG 3(i).
The target is the same in experiment [2]. Put plainly: BB7.2 staining of RMA-S/A2 cells without peptide (peptide-free control); FIG 1(i).
The target is the same in experiment [3]. Kind of experiment: BB7.2 staining of RMA-S/A2 cells without peptide (peptide-free control); FIG 2(i).

In the case of “anti-A2 specific BB7.2 monoclonal antibody”, the Mean 2 worked out at 282 in experiment [1], 380 in experiment [2] and 311 in experiment [3]. The Δ Mean came out at 151 in experiment [1], 193 in experiment [2] and 154 in experiment [3].

For the origin of these results see patent US20050152926A1.
